The target of test [1] is T1, murine NT5E expressed on 4T1 cells (murine) (UniProt Q61503).
T1 sequence (looked up): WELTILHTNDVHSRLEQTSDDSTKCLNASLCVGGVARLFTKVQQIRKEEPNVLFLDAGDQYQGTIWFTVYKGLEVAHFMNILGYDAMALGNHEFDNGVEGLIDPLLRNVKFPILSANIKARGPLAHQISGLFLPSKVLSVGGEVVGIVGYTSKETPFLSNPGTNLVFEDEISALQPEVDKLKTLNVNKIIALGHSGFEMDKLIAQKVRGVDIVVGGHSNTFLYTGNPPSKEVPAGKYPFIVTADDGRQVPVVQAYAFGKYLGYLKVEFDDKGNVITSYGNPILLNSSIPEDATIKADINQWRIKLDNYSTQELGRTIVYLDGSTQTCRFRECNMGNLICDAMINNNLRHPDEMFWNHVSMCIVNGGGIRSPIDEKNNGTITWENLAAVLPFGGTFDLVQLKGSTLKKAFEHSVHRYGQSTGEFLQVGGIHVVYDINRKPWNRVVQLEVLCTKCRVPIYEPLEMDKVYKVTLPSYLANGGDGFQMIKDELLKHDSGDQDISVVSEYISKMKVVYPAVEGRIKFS
Kind of test: cell-based or functional assay.

For test [2], the target named is T2, human NT5E expressed on MDA-MB-231 cells (human) (UniProt P21589).
T2 sequence (looked up): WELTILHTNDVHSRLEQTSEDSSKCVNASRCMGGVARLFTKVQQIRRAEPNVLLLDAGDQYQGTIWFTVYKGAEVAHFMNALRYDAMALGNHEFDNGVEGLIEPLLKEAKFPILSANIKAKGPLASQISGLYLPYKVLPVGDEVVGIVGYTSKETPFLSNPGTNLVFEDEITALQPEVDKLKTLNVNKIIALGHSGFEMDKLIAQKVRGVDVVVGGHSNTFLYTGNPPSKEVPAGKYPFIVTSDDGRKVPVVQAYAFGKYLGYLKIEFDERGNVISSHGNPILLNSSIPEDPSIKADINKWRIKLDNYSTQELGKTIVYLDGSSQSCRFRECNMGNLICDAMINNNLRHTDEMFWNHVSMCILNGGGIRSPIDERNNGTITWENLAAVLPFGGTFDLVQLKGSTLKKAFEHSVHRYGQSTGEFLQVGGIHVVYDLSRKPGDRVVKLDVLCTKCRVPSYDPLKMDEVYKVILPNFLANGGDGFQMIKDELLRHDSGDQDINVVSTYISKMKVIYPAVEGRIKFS
Kind of test: cell-based or functional assay.

B1: 1789 AM39 IgG (antibody, V domains shown)
VH: EVQLVESGGGLVQPGGSLRLSCAASGFNVSYSSIHWVRQAPGKGLEWVASIRGAGSDTRYADSVKGRFTISADTSKNTAYLQMNSLRAEDTAVYYCARNYWGWYPFYYFAFDYWGQGTLVTVSS
VL: DIQMTQSPSSLSASVGDRVTITCRASQSVSSAVAWYQQKPGKAPKLLIYSASSLYSGVPSRFSGSRSGTDFTLTISSLQPEDFATYYCQQGWDYPITFGQGTKVEIKR
On to B1, for which, in test [1], the IC50 of inhibition of NT5E activity on 4T1 cells, ATP stood at 12.7 nM. Moreover, in test [2], the IC50 of inhibition of NT5E activity on MDA-MB-231 cells, ATP worked out at 2.5 nM and the IC50 of inhibition of NT5E activity on MDA-MB-231 cells, no ATP was found to be 6.9 nM.

B2: 1789 AM42 IgG (antibody, V domains shown)
VH: EVQLVESGGGLVQPGGSLRLSCAASGFNVSYSSIHWVRQAPGKGLEWVAKIRGGHQDTHYADSVKGRFTISADTSKNTAYLQMNSLRAEDTAVYYCARNYWGWYPFYYFAFDYWGQGTLVTVSS
VL: DIQMTQSPSSLSASVGDRVTITCRASQSVSSAVAWYQQKPGKAPKLLIYSASSLYSGVPSRFSGSRSGTDFTLTISSLQPEDFATYYCQQGWDYPITFGQGTKVEIKR
Turning to B2, the IC50 of inhibition of NT5E activity on 4T1 cells, ATP in test [1] amounted to 8.8 nM. Moreover, in test [2], the IC50 of inhibition of NT5E activity on MDA-MB-231 cells, ATP amounted to 1.9 nM and the IC50 of inhibition of NT5E activity on MDA-MB-231 cells, no ATP was 5.4 nM.

B3: 1789 AM32 IgG (antibody, V domains shown)
VH: EVQLVESGGGLVQPGGSLRLSCAASGFNVSYSSIHWVRQAPGKGLEWVARIRGNEGDTYYADSVKGRFTISADTSKNTAYLQMNSLRAEDTAVYYCARNYWGWYPFYYFAFDYWGQGTLVTVSS
VL: DIQMTQSPSSLSASVGDRVTITCRASQSVSSAVAWYQQKPGKAPKLLIYSASSLYSGVPSRFSGSRSGTDFTLTISSLQPEDFATYYCQQGWDYPITFGQGTKVEIKR
Consider B3, for which the IC50 of inhibition of NT5E activity on 4T1 cells, ATP in test [1] was 9.1 nM. Further, in test [2], the IC50 of inhibition of NT5E activity on MDA-MB-231 cells, ATP was 2.3 nM and the IC50 of inhibition of NT5E activity on MDA-MB-231 cells, no ATP came to 5.6 nM.
